Where “and” joins values, the source holds several entries; their conditions need not be identical. Equal entries are not always repeated. Where two headings read alike, the source gives them in different places. Where no end group is shown, it is not given here.
Key:
Daboiatoxin PLA2 [1] = molecular target: Daboiatoxin PLA2 (Daboia siamensis, UniProt Q7T2R1+Q7T3T5); type: in vivo, mice; settings: mouse, in vivo
[2] = molecular target: daboiatoxin, the major PLA2 toxin of Daboia russelli siamensis venom (Daboia siamensis, UniProt Q7T2R1+Q7T3T5); type: biochemical
[3] = tested on: PLA2 activity of Daboia russelli siamensis venom; type: biochemical
[4] = tested on: Daboia russelli siamensis venom; type: in vivo, mice; settings: Table 6; for Paw oedema: 45 min, n = 3
[5] = tested on: Daboia russelli russelli (India) venom; type: in vivo, mice
Daboiatoxin PLA2 [6] = molecular target: T1, Daboiatoxin PLA2 (Daboia siamensis, UniProt Q7T2R1+Q7T3T5); type: in vivo, mice
T1 sequence (Q7T2R1 whole entry, looked up): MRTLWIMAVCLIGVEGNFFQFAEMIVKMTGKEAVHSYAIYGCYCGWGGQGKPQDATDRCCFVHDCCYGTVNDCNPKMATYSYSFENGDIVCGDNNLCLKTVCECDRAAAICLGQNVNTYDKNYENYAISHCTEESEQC
T1 sequence (Q7T3T5 whole entry, looked up): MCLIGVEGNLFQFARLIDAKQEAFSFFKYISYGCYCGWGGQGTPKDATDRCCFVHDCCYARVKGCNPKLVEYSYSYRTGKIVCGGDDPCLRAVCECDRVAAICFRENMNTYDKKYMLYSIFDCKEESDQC

[7] = not given; remark: listed apart in the source
[8] = tested on: Daboia russelli siamensis venom; type: in vivo, mice
[9] = tested on: Daboia russelli pulchella (Sri Lanka) venom; type: in vivo, mice
[10] = tested on: Daboia russelli siamensis (Thailand) venom; type: in vivo, mice

In the case of PLPGLPLSLQNGLYK [PP-0008], the “Anti-Inflammatory Activity” value (Daboiatoxin PLA2 [1]) is reported as “Negative”, the “PLA2-inhibitory activity (in words)” value [2] is reported as “insignificant” and the “PLA2 inhibition (%)” value [2] is reported as 18%.

In the case of GAFGIFTEDSTEK [PP-0005], the “Anti-Inflammatory Activity” value (Daboiatoxin PLA2 [1]) is reported as “Negative”, the “PLA2-inhibitory activity (in words)” value [2] is reported as “fails to inhibit PLA2 activity” and the “PLA2 inhibition (%)” value [2] is reported as −13%.

With LSLQNGLYK [PP-0006] the “IC50” value [2] was 250 µg and the “PLA2 inhibition (%)” value [2] was 70%.

With PLPGLPLSLQNGLYCPGAFGIF [PP-0036] the “Anti-Inflammatory Activity” value (Daboiatoxin PLA2 [1]) was “Negative”, the “PLA2-inhibitory activity (in words)” value [2] was “devoid of PLA2-inhibitory activity” and the “PLA2 inhibition (%)” value [2] was −3.0%.

In the case of PGLPLSLQNG [P-0029], the “Oedema (mg), inhibitor alone” value (mouse, in vivo) is reported as 13 ± 2 mg, the “IC50” value [2] is reported as 40 µg and the “PLA2 inhibition (%)” value [2] is reported as 90%.

In the case of PLPGLPLSKP [P-0009], the “IC50” value [2] is reported as 125 µg and the “PLA2 inhibition (%)” value [2] is reported as 80%.

B1: PAF: 140-kDa hexameric glycoprotein of six 23-kDa subunits purified from Python reticulatus serum; SEQ ID NO: 6 (protein, listed as Python reticulatus)
chain: MKSLQTICLLFIFIARGTSDKCEICHGFGDDCDGYQEECPSPEDRCGKILIDIALAPVSFRATHKNCFSSSICKLGRVDIHVWDGVYIRGRTNCCDNDQCEDQPLPGLPLSLQNGLYCPGAFGIFTEDSTEHEVKCRGTETMCLDLVGYRQESYAGNITYNIKGCVSSCPLVTLSERGHEGRKNDLKKVECREALKPASSD
With B1 the “Inhibitory activity (IC50)” value [3] was 0.2 mg, the “% Inhibition (mean)” value ([4]; venom 5 μg + 25 μg inhibitor) was 7.8% and the “Paw oedema” value ([4]; venom 5 μg + 25 μg inhibitor subplantar, PAF is recombinant) was 107 ± 20 mg. The “% Inhibition (mean)” value ([4]; venom 5 μg + 50 μg inhibitor) was 46.5%, the “Paw oedema” value ([4]; venom 5 μg + 50 μg inhibitor) was 62 ± 2.2 mg and the “% Inhibition (mean)” value ([4]; venom 5 μg + 100 μg inhibitor) was 74.6%. The “Paw oedema” value ([4]; venom 5 μg + 100 μg inhibitor) was 29 ± 0.8 mg, the “Protection against lethality, Survival/total” value (“Protection … Survival/total” below) ([5]; 24 hr) was 3/3 and the “% neutralisation” value ([5]; mouse, in vivo, ip) was 100%. The “Paw oedema” value (Daboiatoxin PLA2 [6]; 45 min, n = 3) was 18 ± 6.0 mg and 13 ± 0.4 mg, the “% Inhibition (mean)” value (Daboiatoxin PLA2 [6]; mouse, in vivo) was 89.4% and 92.1% and the “% Inhibition (mean) column, inhibitor alone” value (mouse, in vivo) was “n.s”. The “Paw oedema (mg), inhibitor alone” value (n = 3) was 10 ± 5.2 mg, the “Survival/total, PAF alone” value ([7]; 24 hr) was 3/3 and the “toxicity of native PAF” value ([7]; mice) was “non-toxic”. The “Protection … Survival/total” value ([8]; 24 hr) was 4/4, the “% neutralisation” value ([8]; mouse, in vivo, ip) was 100% and the “Protection … Survival/total” value ([9]; 24 hr) was 3/3. For the same molecule, the “% neutralisation” value ([9]; mouse, in vivo, ip) was 100%, the “Protection … Survival/total” value ([10]; 24 hr) was 3/3 and the “% neutralisation” value ([10]; mouse, in vivo, ip) was 100%.
